Consider 14 proteins from PMC6625726, “A polymorphic helix of a Salmonella needle protein relays signals defining distinct steps in type III secretion” (PLoS Biology, 2019).

The labels stand for the following.
B1: PrgI, wild type, in S. Typhimurium (natural protein)
chain: MATPWSGYLDDVSAKFDTGVDNLQTQVTEALDKLAAKPSDPALLAAYQSKLSEYNLYRNAQSNTVKVFKDIDAAIIQNFR
notes: needle filament protein PrgI of the SPI-1 T3SS, 80 amino acids; assembled in vivo into the needle filament of the injectisome; also called WT PrgI; needle filament; source: S. Typhimurium ΔprgI ΔprgJ, from the low-copy plasmid pWSK29 (with prgJ); or chromosomal in wild-type and ΔsipD strains
B2: PrgI^R58A, recombinant (natural protein, Salmonella enterica serovar Typhimurium, UniProt P41784 1-80, looked up)
chain: MATPWSGYLDDVSAKFDTGVDNLQTQVTEALDKLAAKPSDPALLAAYQSKLSEYNLYANAQSNTVKVFKDIDAAIIQNFR
notes: needle filament protein PrgI of the SPI-1 T3SS, 80 amino acids; used for solid-state NMR; not shown: His6, N-terminal, cleaved
B3: PrgI^V20A, recombinant (natural protein, Salmonella enterica serovar Typhimurium, UniProt P41784 1-80, looked up)
chain: MATPWSGYLDDVSAKFDTGADNLQTQVTEALDKLAAKPSDPALLAAYQSKLSEYNLYRNAQSNTVKVFKDIDAAIIQNFR
notes: as for B2
B4: PrgI^Q77R, recombinant (natural protein, Salmonella enterica serovar Typhimurium, UniProt P41784 1-80, looked up)
chain: MATPWSGYLDDVSAKFDTGVDNLQTQVTEALDKLAAKPSDPALLAAYQSKLSEYNLYRNAQSNTVKVFKDIDAAIIRNFR
notes: as for B2
B5: PrgI, wild type, recombinant (natural protein)
chain: MATPWSGYLDDVSAKFDTGVDNLQTQVTEALDKLAAKPSDPALLAAYQSKLSEYNLYRNAQSNTVKVFKDIDAAIIQNFR
notes: needle filament protein PrgI of the SPI-1 T3SS, 80 amino acids; pET15b, thrombin-cleavable tag; polymerised in vitro into filaments; also called PrgI^WT; WT PrgI; not shown: His6, N-terminal, cleaved
B6: PrgI^L56A, recombinant (natural protein, Salmonella enterica serovar Typhimurium, UniProt P41784 1-80, looked up)
chain: MATPWSGYLDDVSAKFDTGVDNLQTQVTEALDKLAAKPSDPALLAAYQSKLSEYNAYRNAQSNTVKVFKDIDAAIIQNFR
notes: needle filament protein PrgI of the SPI-1 T3SS, 80 amino acids; not shown: His6, N-terminal, cleaved
B7: PrgI^F16A, recombinant (natural protein, Salmonella enterica serovar Typhimurium, UniProt P41784 1-80, looked up)
chain: MATPWSGYLDDVSAKADTGVDNLQTQVTEALDKLAAKPSDPALLAAYQSKLSEYNLYRNAQSNTVKVFKDIDAAIIQNFR
notes: as for B6
B8: PrgI^D70K, recombinant (natural protein, Salmonella enterica serovar Typhimurium, UniProt P41784 1-80, looked up)
chain: MATPWSGYLDDVSAKFDTGVDNLQTQVTEALDKLAAKPSDPALLAAYQSKLSEYNLYRNAQSNTVKVFKKIDAAIIQNFR
notes: as for B6
B9: PrgI^L31A, recombinant (natural protein, Salmonella enterica serovar Typhimurium, UniProt P41784 1-80, looked up)
chain: MATPWSGYLDDVSAKFDTGVDNLQTQVTEAADKLAAKPSDPALLAAYQSKLSEYNLYRNAQSNTVKVFKDIDAAIIQNFR
notes: as for B6
B10: PrgI^L9A, recombinant (natural protein, Salmonella enterica serovar Typhimurium, UniProt P41784 1-80, looked up)
chain: MATPWSGYADDVSAKFDTGVDNLQTQVTEALDKLAAKPSDPALLAAYQSKLSEYNLYRNAQSNTVKVFKDIDAAIIQNFR
notes: as for B6
B11: PrgI^K66E, recombinant (natural protein, Salmonella enterica serovar Typhimurium, UniProt P41784 1-80, looked up)
chain: MATPWSGYLDDVSAKFDTGVDNLQTQVTEALDKLAAKPSDPALLAAYQSKLSEYNLYRNAQSNTVEVFKDIDAAIIQNFR
notes: as for B6
B12: PrgI^T3A, recombinant (natural protein, Salmonella enterica serovar Typhimurium, UniProt P41784 1-80, looked up)
chain: MAAPWSGYLDDVSAKFDTGVDNLQTQVTEALDKLAAKPSDPALLAAYQSKLSEYNLYRNAQSNTVKVFKDIDAAIIQNFR
notes: as for B6
B13: PrgI^V67A, recombinant (natural protein, Salmonella enterica serovar Typhimurium, UniProt P41784 1-80, looked up)
chain: MATPWSGYLDDVSAKFDTGVDNLQTQVTEALDKLAAKPSDPALLAAYQSKLSEYNLYRNAQSNTVKAFKDIDAAIIQNFR
notes: as for B6
B14: PrgI^S49A, recombinant (natural protein, Salmonella enterica serovar Typhimurium, UniProt P41784 1-80, looked up)
chain: MATPWSGYLDDVSAKFDTGVDNLQTQVTEALDKLAAKPSDPALLAAYQAKLSEYNLYRNAQSNTVKVFKDIDAAIIQNFR
notes: as for B6

The first data set deals with the molecule itself. Put plainly: cryo-EM structure; needle filaments boxed out from fully assembled needle complexes isolated by affinity chromatography (in vivo assembled, attached to the base); helical reconstruction.
B1: the binding result was “binds”.

The next data set deals with the molecule itself. Briefly: solid-state NMR of filaments; magic-angle spinning, 800 MHz, 11 kHz, approximately 278 K; 13C-detected 1D and 2D spectra of needle filaments.
In the case of B2, the binding result is “binds”.
The same measure, in the same setting: under B3 stands “binds”; under B4, “binds”.

A further data set concerns the molecule itself. Briefly: in vitro polymerization seen by negative-stain electron microscopy; His-tag cleaved with thrombin; concentrated to approximately 1 mg/ml in 20 mM MES, pH 5.5, overnight at room temperature; 2% phosphotungstic acid stain.
With B5, the binding result was “binds”.
For the protein B6, the binding result was “binds”.
Same read-out and setting: the result for B7 reads “binds”; that for B8, “binds”.
Still for that read-out and setting: the result for B9 reads “binds”; that for B10, “binds”; that for B11, “binds”.
The same measure, in the same setting: under B12 stands “binds”.

The next data set concerns the molecule itself. Briefly: cryo-EM structure; filaments polymerized in vitro from purified protein, sonicated; helical reconstruction.
With B13, the binding result was “binds”.
Still for that read-out and setting: the result for B14 reads “binds”.
